The target of experiment [1] is Biot-CC2-LZ (murine). In words: HTRF, 50 nM each, in the presence of GST-Ub4 (12.5 µM), which induces the CC2-LZ dimer. On the technique in general: TR-FRET usually uses a lanthanide donor and a delayed reading to cut background.
Experiment [2] deals with Biot-CC2-LZ (murine). In words: HTRF, 50 nM each, in the presence of Poly-Ub (12.5 µM).
Experiment [3] deals with Biot-CC2-LZ (murine). In words: HTRF, 50 nM each, streptavidin-EuK 2 nM, anti-His-XL665 7 nM.
Experiment [4] concerns the target Biot-CC2-LZ (murine). In words: HTRF, 50 nM each, in the presence of Mono-Ub (1 µM).

A value given as a limit tells only on which side of the number the result lay.

B1: His-CC2-LZ (protein)
chain: MGSHHHHHHSSGLVPRGSHMASLEDLRQQLQQAEEALVAKQELIDKLKEEAEQHKIVMETVPVLKAQADIYKADFQAERHAREKLVEKKEYLQEQLEQLQREFNKL
As to B1, the FRET (ΔF %) in experiment [1] is 373 ΔF %; in experiment [2], < 0 ΔF %; in experiment [3], < 0 ΔF %; in experiment [4] it was < 0 ΔF %.

These data come from patent US20100240040A1, “METHOD FOR SCREENING FOR SELECTIVE MODULATOR OF THE NF-KB PATHWAY ACTIVATION” (INSTITUT PASTEUR, priority 2007, published 2010).
